According to the supplement of paper PMC10567573:

B1: CAMK2D (parent)
chain: IVRLHDSISEEGFHYLVFDLVTGG
B2: PTPN9 (parent)
chain: IDFLRVVRNQQSLAVSNMGARSKG

Variants of: B1
Experiment: protein stability index of a GFP-peptide fusion (GPS, HEK-293T) (PSI 1-6); higher = more stable
Settings: c terminus: a fixed tail appended
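Note: lentivirally expressed fusions sorted by FACS into six bins by GFP to DsRed ratio, PSI derived from sequencing read proportions per bin multiplied by bin number.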

Going from IVSLHDSISEEGFHYLVFDLVTGG [R3S] to IVELHDSISEEGFHYLVFDLVTGG [R3E], the protein stability index rises from 1.57 to 2.25.

Compared with IVGLHDSISEEGFHYLVFDLVTGG [R3G], IVPLHDSISEEGFHYLVFDLVTGG [R3P] is lower in protein stability index: 2.41 for the first, 2.28 for the second.

Compared with IVHLHDSISEEGFHYLVFDLVTGG [R3H], IVVLHDSISEEGFHYLVFDLVTGG [R3V] is lower in protein stability index: 3.12 for the first, 2.23 for the second.

Going from IVRLHDMISEEGFHYLVFDLVTGG [S7M] to IVRLHDNISEEGFHYLVFDLVTGG [S7N], the protein stability index rises from 3.09 to 3.29.

First: IVRLHDQISEEGFHYLVFDLVTGG [S7Q]
Second: IVRLHDYISEEGFHYLVFDLVTGG [S7Y]
The protein stability index of the first is lower: 2.4 for the first, 3.15 for the second.

Compared with IVRLHDTISEEGFHYLVFDLVTGG [S7T], IVRLHDEISEEGFHYLVFDLVTGG [S7E] is lower in protein stability index: 3.19 for the first, 2.24 for the second.

Going from IVRLHDLISEEGFHYLVFDLVTGG [S7L] to IVRLHDWISEEGFHYLVFDLVTGG [S7W], the protein stability index falls from 2.56 to 2.25.

First: IVRLHDGISEEGFHYLVFDLVTGG [S7G]
Second: IVRLHDAISEEGFHYLVFDLVTGG [S7A]
The protein stability index of the first is lower: 1.96 for the first, 3.35 for the second.

IVRLHDHISEEGFHYLVFDLVTGG [S7H] showed a protein stability index of 3.68.

Variants of: B2
Experiment: as above
Settings: c terminus: a fixed tail appended

First: IDFLRVVRNQQSLAVSNMGARSKT [G24T]
Second: IDFLRVVRNQQSLAVSNMGARSKF [G24F]
The protein stability index of the first is higher: 2.63 for the first, 1.84 for the second.

Compared with IDFLRVVRNQQSLAVSNMGARSKS [G24S], IDFLRVVRNQQSLAVSNMGARSKM [G24M] is lower in protein stability index: 2.28 for the first, 2.18 for the second.

First: IDFLRVVRNQQSLAVSNMGARSKP [G24P]
Second: IDFLRVVRNQQSLAVSNMGARSKQ [G24Q]
The protein stability index of the first is lower: 2.2 for the first, 2.72 for the second.

Going from IDFLRVVRNQQSLAVSNMGARSKH [G24H] to IDFLRVVRNQQSLAVSNMGARSKD [G24D], the protein stability index rises from 2.27 to 2.75.

Compared with IDFLRVVRNQQSLAVSNMGARSKV [G24V], IDFLRVVRNQQSLAVSNMGARSKN [G24N] is higher in protein stability index: 2.45 for the first, 2.46 for the second.

Going from IDFLRVVRNQQSLAVSNMGARSKA [G24A] to IDFLRVVRNQQSLAVSNMGARSKL [G24L], the protein stability index falls from 2.55 to 2.18.

Going from IDFLRVVRNQQSLAVSNMGARSKW [G24W] to IDFLRVVRNQQSLAVSNMGARSKR [G24R], the protein stability index rises from 1.76 to 2.48.

Going from IDFLRVVRNQQSLAVSNMGARSKK [G24K] to IDFLRVVRNQQSLAVSNMGARSKY [G24Y], the protein stability index rises from 3.05 to 3.1.

Going from IDFLRVVRNQQSLAVSNMGARSKI [G24I] to IDFLRVVRNQQSLAVSNMGARSKE [G24E], the protein stability index rises from 2.3 to 2.95.

Going from IDFLRVVRNQQSLAVSNMGARSKC [G24C] to IDFLRVVRNQQSLAVSNMGAHSKG [R21H], the protein stability index rises from 1.84 to 2.67.

First: IDFLRVVRNQQSLAVSNMGAISKG [R21I]
Second: IDFLRVVRNQQSLAVSNMGAQSKG [R21Q]
The protein stability index of the first is lower: 2.14 for the first, 2.18 for the second.

Compared with IDFLRVVRNQQSLAVSNMGAGSKG [R21G], IDFLRVVRNQQSLAVSNMGAASKG [R21A] is lower in protein stability index: 3.16 for the first, 2.6 for the second.

Going from IDFLRVVRNQQSLAVSNMGAESKG [R21E] to IDFLRVVRNQQSLAVSNMGAWSKG [R21W], the protein stability index falls from 2.3 to 2.18.

Going from IDFLRVVRNQQSLAVSNMGAMSKG [R21M] to IDFLRVVRNQQSLAVSNMGAPSKG [R21P], the protein stability index rises from 1.77 to 2.15.

First: IDFLRVVRNQQSLAVSNMGALSKG [R21L]
Second: IDFLRVVRNQQSLAVSNMGATSKG [R21T]
The protein stability index of the first is higher: 1.7 for the first, 1.66 for the second.

Compared with IDFLRVVRNQQSLAVSNMGAKSKG [R21K], IDFLRVVRNQQSLAVSNMGAFSKG [R21F] is higher in protein stability index: 2.4 for the first, 2.45 for the second.

Compared with IDFLRVVRNQQSLAVSNMGAYSKG [R21Y], IDFLRVVRNQQSLAVSNMGADSKG [R21D] is higher in protein stability index: 2.08 for the first, 2.54 for the second.

Going from IDFLRVVRNQQSLAVSNMGASSKG [R21S] to IDFLRVVRNQQSLAVSNMGAVSKG [R21V], the protein stability index falls from 2.37 to 2.

Going from IDFLRVVRNQQSLAVSNMGACSKG [R21C] to IDFLRVVRNQQSLAVSNMGANSKG [R21N], the protein stability index rises from 1.83 to 2.65.

Compared with IDFLRVVRNQQSLAVSNMGARSSG [K23S], IDFLRVVRNQQSLAVSNMGARSNG [K23N] is higher in protein stability index: 1.68 for the first, 2.02 for the second.

First: IDFLRVVRNQQSLAVSNMGARSYG [K23Y]
Second: IDFLRVVRNQQSLAVSNMGARSWG [K23W]
The protein stability index of the first is higher: 1.92 for the first, 1.59 for the second.

First: IDFLRVVRNQQSLAVSNMGARSLG [K23L]
Second: IDFLRVVRNQQSLAVSNMGARSPG [K23P]
The protein stability index of the first is lower: 1.72 for the first, 2.09 for the second.

Compared with IDFLRVVRNQQSLAVSNMGARSRG [K23R], IDFLRVVRNQQSLAVSNMGARSCG [K23C] is lower in protein stability index: 2.4 for the first, 1.88 for the second.

Going from IDFLRVVRNQQSLAVSNMGARSEG [K23E] to IDFLRVVRNQQSLAVSNMGARSVG [K23V], the protein stability index falls from 2.32 to 1.72.

Going from IDFLRVVRNQQSLAVSNMGARSDG [K23D] to IDFLRVVRNQQSLAVSNMGARSMG [K23M], the protein stability index falls from 2.36 to 1.91.

Going from IDFLRVVRNQQSLAVSNMGARSQG [K23Q] to IDFLRVVRNQQSLAVSNMGARSFG [K23F], the protein stability index falls from 3.29 to 1.51.

Compared with IDFLRVVRNQQSLAVSNMGARSIG [K23I], IDFLRVVRNQQSLAVSNMGARSTG [K23T] is lower in protein stability index: 1.72 for the first, 1.32 for the second.

Compared with IDFLRVVRNQQSLAVSNMGARSGG [K23G], IDFLRVVRNQQSLAVSNMGARSHG [K23H] is lower in protein stability index: 1.96 for the first, 1.75 for the second.

Compared with IDFLRVVRNQQSLAVSNMGARSAG [K23A], IDFLRVVRNQQSLAVSNMGARFKG [S22F] is higher in protein stability index: 2.01 for the first, 2.24 for the second.

First: IDFLRVVRNQQSLAVSNMGARNKG [S22N]
Second: IDFLRVVRNQQSLAVSNMGARMKG [S22M]
The protein stability index of the first is higher: 2.57 for the first, 1.81 for the second.

First: IDFLRVVRNQQSLAVSNMGARHKG [S22H]
Second: IDFLRVVRNQQSLAVSNMGARCKG [S22C]
The protein stability index of the first is higher: 2.55 for the first, 2.51 for the second.

Going from IDFLRVVRNQQSLAVSNMGARRKG [S22R] to IDFLRVVRNQQSLAVSNMGARLKG [S22L], the protein stability index falls from 2.64 to 2.07.

First: IDFLRVVRNQQSLAVSNMGARPKG [S22P]
Second: IDFLRVVRNQQSLAVSNMGARGKG [S22G]
The protein stability index of the first is higher: 2.4 for the first, 2.27 for the second.

Going from IDFLRVVRNQQSLAVSNMGARQKG [S22Q] to IDFLRVVRNQQSLAVSNMGARDKG [S22D], the protein stability index falls from 2.86 to 2.69.

Going from IDFLRVVRNQQSLAVSNMGARVKG [S22V] to IDFLRVVRNQQSLAVSNMGARAKG [S22A], the protein stability index rises from 2.03 to 2.2.

Compared with IDFLRVVRNQQSLAVSNMGARWKG [S22W], IDFLRVVRNQQSLAVSNMGARKKG [S22K] is higher in protein stability index: 2.4 for the first, 2.46 for the second.

Going from IDFLRVVRNQQSLAVSNMGARYKG [S22Y] to IDFLRVVRNQQSLAVSNMGARTKG [S22T], the protein stability index rises from 2.16 to 2.23.

Compared with IDFLRVVRNQQSLAVSNMGARIKG [S22I], IDFLRVVRNQQSLAVSNMGAREKG [S22E] is higher in protein stability index: 2.05 for the first, 3.13 for the second.

In the case of IDFLRVVRNQQSLAVSNMGYRSKG [A20Y], the protein stability index is reported as 2.44.
